According to paper PMC9618040, “Cryo-EM structures of light-harvesting 2 complexes from Rhodopseudomonas palustris reveal the molecular origin of absorption tuning” (Proceedings of the National Academy of Sciences of the …, 2022):
Values belong to the compound of their own block, whether it stands above or below them.

What was measured:
[1] = target: PucB-LH2 α-polypeptide (α-apoprotein encoded by the pucBAb gene pair) (Rhodopseudomonas palustris); experiment: cryo-EM structure; single-particle cryo-EM of native LH2 complexes purified from intracytoplasmic membranes of single-pucBA deletion strains, in 0.1% LDAO, 20 mM Tris-Cl pH 8.0; C1 maps with relaxed C9 symmetry; γ encloses six of the nine α/β-heterodimers
[2] = target: PucA-LH2 α-polypeptide (α-apoprotein encoded by the pucBAa gene pair) (Rhodopseudomonas palustris); experiment: as above
[3] = target: PucE-LH2 α-polypeptide (α-apoprotein encoded by the pucBAe gene pair) (Rhodopseudomonas palustris); experiment: as above
[4] = target: T1, PucA-LH2 (Rhodopseudomonas palustris, UniProt P35101+P35106+Q6N9P5); experiment: cryo-EM structure of the complex, […] Å; assay type: binding; details: 9 per complex, between alpha and beta chains; noncovalent
T1 construct: gene pucAA; native nonameric LH2 complex purified in LDAO from a Rps. palustris mutant with only pucBAa; α9β9γ1; alpha Met1 modelled as Cxm; last nine alpha residues untraced
T1 sequence (P35101 whole entry): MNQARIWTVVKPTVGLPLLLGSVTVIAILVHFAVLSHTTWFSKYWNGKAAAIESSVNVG
T1 sequence (P35106 2-47 limits assumed): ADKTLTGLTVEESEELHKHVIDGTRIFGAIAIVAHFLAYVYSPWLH
T1 sequence (Q6N9P5 1-97): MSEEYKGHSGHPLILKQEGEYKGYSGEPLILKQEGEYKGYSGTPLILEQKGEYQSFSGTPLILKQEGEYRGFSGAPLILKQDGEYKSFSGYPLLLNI

[5] = target: PucD-LH2 α-polypeptide (α-apoprotein encoded by the pucBAd gene pair) (Rhodopseudomonas palustris); experiment: cryo-EM structure; single-particle cryo-EM of native LH2 complexes purified from intracytoplasmic membranes of single-pucBA deletion strains, in 0.1% LDAO, 20 mM Tris-Cl pH 8.0; C1 maps with relaxed C9 symmetry; γ encloses six of the nine α/β-heterodimers

Compound: PucE-LH2 α-polypeptide (α-apoprotein encoded by the pucBAe gene pair) (natural protein)
stoichiometry N [3]: 9

Compound: CC(C)=CCC/C(C)=C/C=C/C(C)=C/C=C/C(C)=C/C=C/C=C(C)/C=C/C=C(C)/C=C/C=C(\C)CCCC(C)(C)O [rhodopin]
cryo-EM structure of the complex, 2.7 Å [4]: A carotenoid, rhodopin, is sandwiched between α- and β-polypeptides

Results, then the compound that gave them:

stoichiometry N [1]: 9
Compound: PucB-LH2 α-polypeptide (α-apoprotein encoded by the pucBAb gene pair) (natural protein)

stoichiometry N [2]: 9
Compound: PucA-LH2 α-polypeptide (α-apoprotein encoded by the pucBAa gene pair) (natural protein)

stoichiometry N [5]: 9
Compound: PucD-LH2 α-polypeptide (α-apoprotein encoded by the pucBAd gene pair) (natural protein)
